Results from publication PMC10957913, “GAS41 modulates ferroptosis by anchoring NRF2 on chromatin” (Nature Communications, 2024).

Target: T1, Flag-tagged GAS41, purified (human, UniProt O95619 1-227)
T1 construct: GAS41, human, full-length cDNA amplified from A549 cDNA; also called purified GAS41 proteins
Assay: pull-down; GST or GST-NRF2 fragments on GST Bind Resin incubated with purified GAS41 in BC200 buffer for 4 h at 4 °C, washed six times with BC200; western blot
Conditions: both partners purified

T1 sequence (O95619 whole entry): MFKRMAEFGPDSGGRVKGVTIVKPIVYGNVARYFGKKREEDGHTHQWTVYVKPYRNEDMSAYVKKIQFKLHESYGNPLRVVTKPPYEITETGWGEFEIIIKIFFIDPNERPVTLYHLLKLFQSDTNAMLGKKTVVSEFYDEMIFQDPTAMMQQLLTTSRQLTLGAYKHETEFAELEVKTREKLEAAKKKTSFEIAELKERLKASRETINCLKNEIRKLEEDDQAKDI

binding result: binds
B1: GST-NRF2-CT (Neh1 and Neh3 domains of NRF2, AA. 434-605) (domain or fragment, UniProt Q16236 434-605, looked up)
chain: PGHRKTPFTKDKHSSRLEAHLTRDELRAKALHIPFPVEKIINLPVVDFNEMMSKEQFNEAQLALIRDIRRRGKNKVAAQNCRKRKLENIVELEQDLDHLKDEKEKLLKEKGENDKSLHLLKKQLSTLYLEVFSMLRDEDGKPYSPSEYSLQQTRDGNVFLVPKSKKPDVKKN
notes: NRF2, Neh1 and Neh3 domains, amino acids 434-605; That the 434-605 fragment is the construct called GST-NRF2-CT in the methods is inferred
